Assay results: the supplement of paper PMC11246515
± gives the standard deviation of the averaged measurements.

Test: total protein half-life in vivo (active degradation + dilution); higher = more stable protein
[1] = E. coli NCM3722 delta-clpP delta-lon delta-hslV, growth: N-lim chemostat, doubling time 6 h
[2] = E. coli NCM3722 delta-clpP, growth: N-lim chemostat, doubling time 6 h
[3] = E. coli NCM3722 delta-hslV, growth: N-lim chemostat, doubling time 6 h
[4] = E. coli NCM3722 delta-lon, growth: N-lim chemostat, doubling time 6 h
[5] = E. coli NCM3722 delta-smpB, growth: N-lim chemostat, doubling time 6 h
[6] = wild type E. coli NCM3722, growth: C-lim chemostat, doubling time 3 h
[7] = wild type E. coli NCM3722, growth: C-lim chemostat, doubling time 6 h
[8] = wild type E. coli NCM3722, growth: C-lim chemostat, doubling time 12 h
[9] = wild type E. coli NCM3722, growth: N-lim chemostat, doubling time 6 h
[10] = wild type E. coli NCM3722, growth: N-lim chemostat, doubling time 12 h
[11] = wild type E. coli NCM3722, growth: P-lim chemostat, doubling time 6 h
[12] = wild type E. coli NCM3722, growth: P-lim chemostat, doubling time 12 h

Sequence	total protein half-life in vivo [1]	total protein half-life in vivo [2]	total protein half-life in vivo [3]	total protein half-life in vivo [4]	total protein half-life in vivo [5]	total protein half-life in vivo [6]	total protein half-life in vivo [7]	total protein half-life in vivo [8]	total protein half-life in vivo [9]	total protein half-life in vivo [10]	total protein half-life in vivo [11]	total protein half-life in vivo [12]
MQERHTEQDYRALLIADTPIIDVRAPIEFEHGAMPAAINLPLMNNDERAAVGTCYKQQGSDAALALGHKLVAGEIRQQRMDAWRAACLQNPQGILCCARGGQRSHIVQSWLHAAGIDYPLVEGGYKALRQTAIQATIELAQKPIVLIGGCTGSGKTLLVQQQPNGVDLEGLARHRGSAFGRTLQPQLSQASFENLLAAEMLKTDARQNLRLWVLEDESRMIGSNHLPECLRERMTQAAIAVVEDPFEIRLERLNEEYFLRMHHDFTHAYGDEQGWQEYCEYLHHGLSAIKRRLGLQRYNELAARLDAALTTQLTTGSTDGHLAWLVPLLEEYYDPMYRYQLEKKAEKVVFRGEWAEVAEWVKAR	4.83 ± 0.89 h	4.43 ± 0.057 h	4.35 ± 0.77 h	4.417 ± 0.0075 h	3.75 ± 0.5 h	3.16 ± 0.1 h	5.87 ± 0.98 h	10.2 ± 1.6 h	4.54 ± 0.24 h	7.414 ± 0.067 h	5.64 ± 0.47 h	
MQESIQLVIDSLPFLLKGAGYTLQLSIGGMFFGLLLGFILALMRLSPIWPVRWLARFYISIFRGTPLIAQLFMIYYGLPQFGIELDPIPSAMIGLSLNTAAYAAETLRAAISSIDKGQWEAAASIGMTPWQTMRRAILPQAARVALPPLSNSFISLVKDTSLAATIQVPELFRQAQLITSRTLEVFTMYLAASLIYWIMATVLSTLQNHFENQLNRQEREPK [P0AFT2]		7.13 h	7.23 h			3.14 h	5.37 ± 0.3 h	15.7 ± 0.28 h	6.07 ± 0.14 h	11.2 ± 4.2 h	6 ± 0.41 h	11.9 ± 0.19 h
MQEYTNHSDTTFALRNISFRVPGRTLLHPLSLTFPAGKVTGLIGHNGSGKSTLLKMLGRHQPPSEGEILLDAQPLESWSSKAFARKVAYLPQQLPPAEGMTVRELVAIGRYPWHGALGRFGAADREKVEEAISLVGLKPLAHRLVDSLSGGERQRAWIAMLVAQDSRCLLLDEPTSALDIAHQVDVLSLVHRLSQERGLTVIAVLHDINMAARYCDYLVALRGGEMIAQGTPAEIMRGETLEMIYGIPMGILPHPAGAAPVSFVY	5.18 h	5.55 h			5.19 ± 0.12 h	2.65 ± 0.19 h	6.7 h	11.4 h	6.03 ± 0.81 h	10.7 h		12.9 ± 3 h
MQFDWSAIWPAIPLLIEGAKMTLWISVLGLAGGLVIGLLAGFARTFGGWIANHVALVFIEVIRGTPIVVQVMFIYFALPMAFNDLRIDPFTAAVVTIMINSGAYIAEITRGAVLSIHKGFREAGLALGLSRWETIRYVILPLALRRMLPPLGNQWIISIKDTSLFIVIGVAELTRQGQEIIAGNFRALEIWSAVAVFYLIITLVLSFILRRLERRMKIL [P0AEQ6]	7.5 ± 0.32 h	5.86 ± 0.24 h	6.66 ± 0.23 h	5.82 ± 0.19 h	6.3 ± 1.3 h	3.216 ± 0.017 h	6.15 ± 0.25 h		6.75 ± 0.56 h	11.4 ± 4.3 h		13 ± 0.43 h
MQFLNMFFFDIYPYIAGAVFLIGSWLRYDYGQYTWRAASSQMLDRKGMNLASNLFHIGILGIFVGHFFGMLTPHWMYEAWLPIEVKQKMAMFAGGASGVLCLIGGVLLLKRRLFSPRVRATTTGADILILSLLVIQCALGLLTIPFSAQHMDGSEMMKLVGWAQSVVTFHGGASQHLDGVAFIFRLHLVLGMTLFLLFPFSRLIHIWSVPVEYLTRKYQLVRARH										> 16 h		
